Experiments:
Experiment in all cases: cell_activity
[1] = tested on: YJR030c-specific ZFN (synthetic); details: yeast, pCUT016 alone; 63% with dual nuclease plasmid pCUT032
[2] = tested on: FS-specific TALEN (synthetic); details: yeast; 3 clones single, 1 double integration; half-sites not stated; scale: clone of 48 with all three ADS cassettes integrated
[3] = tested on: SFC1-specific ZFN (synthetic); details: yeast, pCUT015 alone; 76% with dual nuclease plasmid pCUT032
[4] = tested on: ZFN.gfp (CompoZr zinc finger nuclease heterodimer ZFN.gfp.1/ZFN.gfp.2) (synthetic); details: yeast, three integrated target copies; 0 of 96 with empty vector; monomer to half-site assignment not stated; scale: of 96 colonies with all three loci replaced

Substance YJR030c ORF target has an activity (% ADE2-positive) [1] of 5.

“TAGTGGAGGAATTAAAAGAGGAAGTTAAGAAGGAATTGATAACTATCAA (double strand) [FS TALEN target site]” gave an activity [2] of 1.

Substance SFC1 ORF target has an activity (% GFP-positive) [3] of 50.

“ACAACTACAACAGCCACAACGTCTATATCATGGCCGACAAGCA (double strand) [ZFN.gfp target in emgfp-delta]” gave an activity [4] of 23.

From patent publication US20120277120
